Measurements from paper PMC10973816.

Experiments:
[1] = Non-permeabilised mAb-1438 immunolabelling, HEK, untagged; settings: glycan lost; control: wild type
[2] = EGFP in TRPM1-positive OPL puncta, electroporated mouse retina; settings: glycan lost; control: wild type mGluR6-EGFP
[3] = Total EGFP fluorescence, HEK; settings: glycan lost; control: wild type mGluR6-EGFP
[4] = Permeabilised mAb-1438 immunolabelling, HEK, untagged; settings: glycan lost; control: wild type

B1: mGluR6 (metabotropic glutamate receptor 6): N290Q (protein)
parent chain: MGRLRVLLLWLAWWLSQAGIAHGAGSVRLAGGLTLGGLFPVHARGAAGRACGTLKKEQGVHRLEAMLYALDRINADPELLPGVRLGARLLDTCSRDTYALEQALSFVQALIRGRGDGEEASVRCPGGVPPLRAAPPERVVAVVGASASSVSIMVANVLRLFAIPQISYASTAPELSDSTRYDFFSRVVPPDSYQAQAMVDIVRALGWNYVSTLASEGNYGESGVEAFVQISREAGGVCIAQSIKIPREPKPGEFHKVIRRLMETPNARGIIIFANEDDIRRVLEATRQANLTGHFLWVGSDSWGSKISPILNLEEEAVGAITILPKRASIDGFDQYFMTRSLENNRRNIWFAEFWEENFNCKLTSSGGQSDDSTRKCTGEERIGQDSTYEQEGKVQFVIDAVYAIAHALHSMHQALCPGHTGLCPAMEPTDGRTLLHYIRAVRFNGSAGTPVMFNENGDAPGRYDIFQYQATNGSASSGGYQAVGQWAEALRLDMEALQWSGDPHEVPPSQCSLPCGPGERKKMVKGVPCCWHCEACDGYRFQVDEFTCEACPGHMRPTPNHTGCRPTPVVRLTWSSPWAALPLLLAVLGIMATTTIIATFMRHNDTPIVRASGRELSYVLLTGIFLIYAITFLMVAEPCAAVCASRRLLLGLGTTLSYSALLTKTNRIYRIFEQGKRSVTPPPFISPTSQLVITFGLTSLQVVGVIAWLGAQPPHSVIDYEEQRTVDPEQARGVLKCDMSDLSLIGCLGYSLLLMVTCTVYAIKARGVPETFNEAKPIGFTMYTTCIIWLAFVPIFFGTAQSAEKIYIQTTTLTVSLSLSASVSLGMLYVPKTYVILFHPEQNVQKRKRSLKKTSTMAAPPKSENSEDAK
[1]
  localisation_or_trafficking: no change
[2]
  localisation_or_trafficking: no change

B2: mGluR6 (metabotropic glutamate receptor 6): 3Q!445 (protein)
parent chain: MGRLRVLLLWLAWWLSQAGIAHGAGSVRLAGGLTLGGLFPVHARGAAGRACGTLKKEQGVHRLEAMLYALDRINADPELLPGVRLGARLLDTCSRDTYALEQALSFVQALIRGRGDGEEASVRCPGGVPPLRAAPPERVVAVVGASASSVSIMVANVLRLFAIPQISYASTAPELSDSTRYDFFSRVVPPDSYQAQAMVDIVRALGWNYVSTLASEGNYGESGVEAFVQISREAGGVCIAQSIKIPREPKPGEFHKVIRRLMETPNARGIIIFANEDDIRRVLEATRQANLTGHFLWVGSDSWGSKISPILNLEEEAVGAITILPKRASIDGFDQYFMTRSLENNRRNIWFAEFWEENFNCKLTSSGGQSDDSTRKCTGEERIGQDSTYEQEGKVQFVIDAVYAIAHALHSMHQALCPGHTGLCPAMEPTDGRTLLHYIRAVRFNGSAGTPVMFNENGDAPGRYDIFQYQATNGSASSGGYQAVGQWAEALRLDMEALQWSGDPHEVPPSQCSLPCGPGERKKMVKGVPCCWHCEACDGYRFQVDEFTCEACPGHMRPTPNHTGCRPTPVVRLTWSSPWAALPLLLAVLGIMATTTIIATFMRHNDTPIVRASGRELSYVLLTGIFLIYAITFLMVAEPCAAVCASRRLLLGLGTTLSYSALLTKTNRIYRIFEQGKRSVTPPPFISPTSQLVITFGLTSLQVVGVIAWLGAQPPHSVIDYEEQRTVDPEQARGVLKCDMSDLSLIGCLGYSLLLMVTCTVYAIKARGVPETFNEAKPIGFTMYTTCIIWLAFVPIFFGTAQSAEKIYIQTTTLTVSLSLSASVSLGMLYVPKTYVILFHPEQNVQKRKRSLKKTSTMAAPPKSENSEDAK
[3]
  expression_or_secretion: decreases
[4]
  expression_or_secretion: decreases
[1]
  localisation_or_trafficking: decreases
[2]
  localisation_or_trafficking: no change

B3: mGluR6 (metabotropic glutamate receptor 6): triple mutant (only N473 left) (protein)
parent chain: MGRLRVLLLWLAWWLSQAGIAHGAGSVRLAGGLTLGGLFPVHARGAAGRACGTLKKEQGVHRLEAMLYALDRINADPELLPGVRLGARLLDTCSRDTYALEQALSFVQALIRGRGDGEEASVRCPGGVPPLRAAPPERVVAVVGASASSVSIMVANVLRLFAIPQISYASTAPELSDSTRYDFFSRVVPPDSYQAQAMVDIVRALGWNYVSTLASEGNYGESGVEAFVQISREAGGVCIAQSIKIPREPKPGEFHKVIRRLMETPNARGIIIFANEDDIRRVLEATRQANLTGHFLWVGSDSWGSKISPILNLEEEAVGAITILPKRASIDGFDQYFMTRSLENNRRNIWFAEFWEENFNCKLTSSGGQSDDSTRKCTGEERIGQDSTYEQEGKVQFVIDAVYAIAHALHSMHQALCPGHTGLCPAMEPTDGRTLLHYIRAVRFNGSAGTPVMFNENGDAPGRYDIFQYQATNGSASSGGYQAVGQWAEALRLDMEALQWSGDPHEVPPSQCSLPCGPGERKKMVKGVPCCWHCEACDGYRFQVDEFTCEACPGHMRPTPNHTGCRPTPVVRLTWSSPWAALPLLLAVLGIMATTTIIATFMRHNDTPIVRASGRELSYVLLTGIFLIYAITFLMVAEPCAAVCASRRLLLGLGTTLSYSALLTKTNRIYRIFEQGKRSVTPPPFISPTSQLVITFGLTSLQVVGVIAWLGAQPPHSVIDYEEQRTVDPEQARGVLKCDMSDLSLIGCLGYSLLLMVTCTVYAIKARGVPETFNEAKPIGFTMYTTCIIWLAFVPIFFGTAQSAEKIYIQTTTLTVSLSLSASVSLGMLYVPKTYVILFHPEQNVQKRKRSLKKTSTMAAPPKSENSEDAK
[3]
  expression_or_secretion: decreases
[4]
  expression_or_secretion: decreases
[1]
  localisation_or_trafficking: decreases

B4: mGluR6 (metabotropic glutamate receptor 6): N473Q (protein)
parent chain: MGRLRVLLLWLAWWLSQAGIAHGAGSVRLAGGLTLGGLFPVHARGAAGRACGTLKKEQGVHRLEAMLYALDRINADPELLPGVRLGARLLDTCSRDTYALEQALSFVQALIRGRGDGEEASVRCPGGVPPLRAAPPERVVAVVGASASSVSIMVANVLRLFAIPQISYASTAPELSDSTRYDFFSRVVPPDSYQAQAMVDIVRALGWNYVSTLASEGNYGESGVEAFVQISREAGGVCIAQSIKIPREPKPGEFHKVIRRLMETPNARGIIIFANEDDIRRVLEATRQANLTGHFLWVGSDSWGSKISPILNLEEEAVGAITILPKRASIDGFDQYFMTRSLENNRRNIWFAEFWEENFNCKLTSSGGQSDDSTRKCTGEERIGQDSTYEQEGKVQFVIDAVYAIAHALHSMHQALCPGHTGLCPAMEPTDGRTLLHYIRAVRFNGSAGTPVMFNENGDAPGRYDIFQYQATNGSASSGGYQAVGQWAEALRLDMEALQWSGDPHEVPPSQCSLPCGPGERKKMVKGVPCCWHCEACDGYRFQVDEFTCEACPGHMRPTPNHTGCRPTPVVRLTWSSPWAALPLLLAVLGIMATTTIIATFMRHNDTPIVRASGRELSYVLLTGIFLIYAITFLMVAEPCAAVCASRRLLLGLGTTLSYSALLTKTNRIYRIFEQGKRSVTPPPFISPTSQLVITFGLTSLQVVGVIAWLGAQPPHSVIDYEEQRTVDPEQARGVLKCDMSDLSLIGCLGYSLLLMVTCTVYAIKARGVPETFNEAKPIGFTMYTTCIIWLAFVPIFFGTAQSAEKIYIQTTTLTVSLSLSASVSLGMLYVPKTYVILFHPEQNVQKRKRSLKKTSTMAAPPKSENSEDAK
[1]
  localisation_or_trafficking: decreases
[2]
  localisation_or_trafficking: no change

B5: mGluR6 (metabotropic glutamate receptor 6): triple mutant (only N290 left) (protein)
parent chain: MGRLRVLLLWLAWWLSQAGIAHGAGSVRLAGGLTLGGLFPVHARGAAGRACGTLKKEQGVHRLEAMLYALDRINADPELLPGVRLGARLLDTCSRDTYALEQALSFVQALIRGRGDGEEASVRCPGGVPPLRAAPPERVVAVVGASASSVSIMVANVLRLFAIPQISYASTAPELSDSTRYDFFSRVVPPDSYQAQAMVDIVRALGWNYVSTLASEGNYGESGVEAFVQISREAGGVCIAQSIKIPREPKPGEFHKVIRRLMETPNARGIIIFANEDDIRRVLEATRQANLTGHFLWVGSDSWGSKISPILNLEEEAVGAITILPKRASIDGFDQYFMTRSLENNRRNIWFAEFWEENFNCKLTSSGGQSDDSTRKCTGEERIGQDSTYEQEGKVQFVIDAVYAIAHALHSMHQALCPGHTGLCPAMEPTDGRTLLHYIRAVRFNGSAGTPVMFNENGDAPGRYDIFQYQATNGSASSGGYQAVGQWAEALRLDMEALQWSGDPHEVPPSQCSLPCGPGERKKMVKGVPCCWHCEACDGYRFQVDEFTCEACPGHMRPTPNHTGCRPTPVVRLTWSSPWAALPLLLAVLGIMATTTIIATFMRHNDTPIVRASGRELSYVLLTGIFLIYAITFLMVAEPCAAVCASRRLLLGLGTTLSYSALLTKTNRIYRIFEQGKRSVTPPPFISPTSQLVITFGLTSLQVVGVIAWLGAQPPHSVIDYEEQRTVDPEQARGVLKCDMSDLSLIGCLGYSLLLMVTCTVYAIKARGVPETFNEAKPIGFTMYTTCIIWLAFVPIFFGTAQSAEKIYIQTTTLTVSLSLSASVSLGMLYVPKTYVILFHPEQNVQKRKRSLKKTSTMAAPPKSENSEDAK
[3]
  expression_or_secretion: decreases
[4]
  expression_or_secretion: decreases
[1]
  localisation_or_trafficking: decreases

B6: mGluR6 (metabotropic glutamate receptor 6): 3Q!561 (protein)
parent chain: MGRLRVLLLWLAWWLSQAGIAHGAGSVRLAGGLTLGGLFPVHARGAAGRACGTLKKEQGVHRLEAMLYALDRINADPELLPGVRLGARLLDTCSRDTYALEQALSFVQALIRGRGDGEEASVRCPGGVPPLRAAPPERVVAVVGASASSVSIMVANVLRLFAIPQISYASTAPELSDSTRYDFFSRVVPPDSYQAQAMVDIVRALGWNYVSTLASEGNYGESGVEAFVQISREAGGVCIAQSIKIPREPKPGEFHKVIRRLMETPNARGIIIFANEDDIRRVLEATRQANLTGHFLWVGSDSWGSKISPILNLEEEAVGAITILPKRASIDGFDQYFMTRSLENNRRNIWFAEFWEENFNCKLTSSGGQSDDSTRKCTGEERIGQDSTYEQEGKVQFVIDAVYAIAHALHSMHQALCPGHTGLCPAMEPTDGRTLLHYIRAVRFNGSAGTPVMFNENGDAPGRYDIFQYQATNGSASSGGYQAVGQWAEALRLDMEALQWSGDPHEVPPSQCSLPCGPGERKKMVKGVPCCWHCEACDGYRFQVDEFTCEACPGHMRPTPNHTGCRPTPVVRLTWSSPWAALPLLLAVLGIMATTTIIATFMRHNDTPIVRASGRELSYVLLTGIFLIYAITFLMVAEPCAAVCASRRLLLGLGTTLSYSALLTKTNRIYRIFEQGKRSVTPPPFISPTSQLVITFGLTSLQVVGVIAWLGAQPPHSVIDYEEQRTVDPEQARGVLKCDMSDLSLIGCLGYSLLLMVTCTVYAIKARGVPETFNEAKPIGFTMYTTCIIWLAFVPIFFGTAQSAEKIYIQTTTLTVSLSLSASVSLGMLYVPKTYVILFHPEQNVQKRKRSLKKTSTMAAPPKSENSEDAK
[3]
  expression_or_secretion: decreases, 3Q!561 had the highest expression among the triple mutants
[4]
  expression_or_secretion: decreases
[1]
  localisation_or_trafficking: decreases
[2]
  localisation_or_trafficking: abolishes
